Assay: label from the status in PepcDB records

Row | Sequence | protein production
1 | MPDTPAEGYGNTLSSLALDHNWRTIYPLGAYQLSGLAWVDPQALWLRQLPRLPFCQATLGASFLALDRVRGFILLINGENDHSEILNPYDLEPFLDANGLCLYRETLWFCRDTWLYRCHLPDWHVEKMLECRYPIYGVAVDETGIYVACQKSGYIHCFDETGREQYRLSAPGIGCENLALKDGYLWVSDRLEQSIYCLDRHSGHVEWVALTPFAQPTAFTFDATGQLWVAYGGEEAYLRDNPNNREAPLEIDYRDICLIHPLLYHTHREQHYTLSNGYLIEMAYVEELSPLDALHLDNLEWRIALPANSPRQKLLRVEPVGTPFRLETVADQQVAVFDFPELRPYEARLFGWRAWLEVRGMKYHLSFDNIDETQPLPSEFAAQYLVDNDELAMDQPIVQEAAREAVGTETNILRKMLKIRNYVYDRLSYAMRPTIETPDVVLKRGTGSCGEYVGVLLALARLNGIACRTVGRYKCPPYPQKRGIPLQPTYNHVWLEFYVPGVGWVPMESNPDDVVERGPYPTRFFMALPWYHVEVGKGIRFETTNYRDRGVRLGDLALNHVRFTIHSELPPLLLEHHHHHH | failed
2 | MPEHTPAPTPHRAVYGFAFYMLFTVLFLVYVTWALLPVEFGLHSYLPDKYFAVFVPFLVLVFAWFFAFLIYPAINLSMTVDVDSIASVVDPKLALPKGTEFTSWSQLQKGKVSQDSASKKASPVNCNLCRTFHQPVTRAPIPPLRFLDLQEVNTAYYN | failed
3 | MPEITLNCQKLPCPQPVLRCKALLDTEAPARCTVTVDNAPASENVARFLTSRGYDTSVHADPEGLWNIIAVRKDSAVAPSCDCEVMDARGIAAIAGTAEMPQKVTVFITSETLGSGDDVLGGKLMANFLATLPELGDELWRIVCVNGGVRLATREHPAVTHLNKLEAMGVDILVCGTCLDHFGLLSEKAVGQTTNMLDVVTSLQLATKVIRPLEHHHHHH | not failed
4 | MPEKKPVTAENSVGIDLGIEKFAILSDGIAVENPRFIKRVEKRIKKLQKQISRKKKGSKNYEKQKIRIQKKYRKLRNLRDDFHDKVSTAIAKRYDTIFIEDLNVRGMQRNHHLARSITDVSFYSFKEKLKWKADRYGKNLIEIGRFDPSSKLCSRCGNIKKDLKLSDRVYSCDACGLTIDRDYNASLDIRKIGLVKVGLVPPEFTPVEIATSGLDGIYPYRQMSVGESGRSEASAEELEHHHHHH | failed
5 | MPESRTVALVTLGCARNEVDSEELAGRLEADGWKLVDDAEEADVAVVNTCGFVEAAKKDSVDALLEANDLKGHGRTQAVVAVGCMAERYGKELADALPEADGVLGFDDYADISDRLQTILNGGIHAAHTPRDRRKLLPISPAERQEAGAAVALPGHGPTDLPEGVAPASGPRAPLRRRLDGSPVASVKLASGCDRRCSFCAIPSFRGSFISRRPSDVLNETRWLAEQGVKEIMLVSENNTSYGKDLGDIRLLESLLPNLAEVDGIERVRVSYLQPAEMRPGLIDVLTSTEKVAPYFDLSFQHSAPNVLRAMRRFGDTDRFLELLDTIRSKAPEAGVRSNFIVGFPGESEADLAELERFLNHARLDAIGVFGYSDEEGTEAATYGDKLDEDVVAERLARVSRLAEELVSQRADERVGATVRVLVESVDPAGEGDGVRGRAEHQAPETDGQVLLTSGAGLSVGRMVDAKVVGTEGVDLVAEPLLGSPEWSEEAGRLEHHHHHH | failed
6 | MPEYSSVTGLEGVKFAPLKKENGFYVATKIIDYPYAINAKVNTETSTEKQYADNKLVDMAVTTGSTKLELEMRDLPMEILEELFGIEETDGIYMFKKNVIAPWVAMSFYGPKANGKNRHVGLVKGRFSLPDDEWKTKEEKTDFQTVKLSAEFMEREQDNAYKVLADEDAPNFNLDKFYEKVFGNAYKNPLEHHHHHH | not failed
7 | MPFGYGLSYGTDFSQEIVSTEQNEDSVTLKVHAANNGTKAGKDVVQVYYNPPYTDFDAKNSIEKSTVNLIAFEKTDDIQPGAAQDITVTVTKEDMASYSYAHENSDGTKGAYLLEQGDYALSINKTAHEEYQSVTVNVPQTIWYDNDNPRQSDKDGQAILDDQGDPTNEPANGDTFKAASNLFQDMTDHMSKTSQLTRANGALSNTATFPTKEEMADISAAFNAKTDDEGRLILQQMDLDTDTTLGNTAGSKVYTTEKPTSNADNGLTLSDLRGVDFNDTKWDQLLDQLEWPSRMPE | failed
8 | MPGAEQRWPARAALLLVLIAAAGLARGQETPSGPPPRVAMVVGNSAYQNVPALPNPAGDAELVAEKLWESGFEVIETVDADRETMLADLATFRSRLREGSEALFFYAGHGVQIGGRNYLLPVSVAPSSVEDLKAQAIDAQLFLDVMAQSGARLTLVLLDACRNNPFLDIPSDGAEAIATRALSIGASRAAVERGLRDLAAASRGGLAEMSAGRGEALISFATAPGQVAFDGRGRHSPYTSALAGSIDEPGLELVDLFRRVRGAVREATGGQQIAWTASTLESRFYFKPPADDLRSATTGMSTGSDTLGALPPRRVVDRTFWRAIRDTDRLDAFTAYVRTMPDGAFVAEAKEKIRSLGGDPEAIPVSDLSLPERPRGFVLADPAAQADLAATLDRAPASVPIGTGAARIGAAAGRAGWVHVAAAPRLGAVSAGGTRLEAGSVRWMEADQPLDYLPGIGSNGGLDSLRAEALREGGTTEPLEAAVETYVDACDMLAGNPYDSQRVTAGTRQFILDRNHDAAIAVCEIAVARHPEVVRFWAELARSYRAAGRYEEALHWQQKAVDAGYASAMVYLGQMFLDGQAVPQDFDRARELFEAADARGETAALTALAWIHRAGVGVPEDPARALDFYRQGAARGNDWAMTNIGEFYQKGLSVARDPAEAVRWYTAAAKSGELTAQTRLARMYQTGDGIAVDEAQARFWFETAAGRGVPNALTRLGLMYEQGQGVDRDLEAAARLYGRAAAEGDAEAWLRLGRLEASDAPLFDRPERALPLLEKALAAQVPGAARELGRLYETGRGVTKDLARARALYVQEAGANPWAARDAGRAFASDEGAPADPAQAARWYRAAAEGGVPWAALDLGRLYETGRGVPQDRTEALVLYAAAARPGGDARAADAARRAAAGYSAEETIRAAQLLLGRLGAEVGAPDGRIGPATRDALARVFAAQGRAAPGTRIDFDLLAELSAMDEERLP | failed
9 | MPGELLGAHYGHCFGCGEEQSHGLHLAARAGQGVSITAEFTVQPAHQGAPGLAHGGVLATALDETLGSLNWLLRTIAVTGRLETDFVRPVPVGTVLYLEAEVTAVAGRKIYSTATGRIGGPEGPVAVRADALFVEVKVDHFTDNGRQEEIRAAMNDPDQLRRARAFEVNPLEHHHHHH | failed
10 | MPGFTAPTRRQVLSLYKEFIKNANQFNNYNFREYFLSKTRTTFRKNMNQQDPKVLMNLFKEAKNDLGVLKRQSVISQMYTFDRLVVEPLQGRKH | failed
11 | MPGGRRRGFDDQVALQTAMELFWRQGYEGTSITDLTKALGINPPSLYAAFGSKRDLFEKTLDRYMCERTLQLEEAMVRPTAHEAVLDFLTGRVEVFTAPGQPFGCMTVQAGLASGEPHHEIVDLLTAAREQMRQTVLDRFEKALADGDLPAGTDCTALARYVMAAVYGLSVEAASGAPREELTAAAILAAQVVPRAQM | not failed
12 | MPGKGEGSPVGIAILGYGTVGSQVLRLLTENHNDFQHRAGGPLEIKGVAASSVEKHRGSLADQLGLLTDDARSLIARDDVDIVVEVIGGIDYPRELILEALHSGKSVVTANKALVAAHSEELAAAADEAGVDLYFEAAVAAAIPVLGPLRRSLAGDQIQSVAGIVNGTTNFILDAMDSTGASYDDMLAEATRLGYAEADPTADVEGHDAASKAAILASLAFHTRVTYADVYCEGISKITADDINAAKEAGFTIKLLAICERLNVDGVEKVSARVHPTLVPRNHPLASVDKSFNAIFVEAEAAGRLMFYGNGAGGNPTASAVLGDIVGAARNKVFGGRAPGESTYADLPIAPFGEVPTRFHIDMEVEDRVGVLADLAKTFSNHGISLRTVRQAEKDGHARLIVVTHTAKESELEATVEQIKNSDSVKKINSVIRLAGLEHHHHHH | not failed
13 | MPGPKKPVTPEDIIRLTFVSNPSVSPEGDKVAYLATKADEKENTYRSGIWLAEEDSYRPLTGGPYDRCPAWSPDGEIIAFSRTVNSNQRKRHYIAIVSPKGGEPQVLHESVSPATSIKWSSQGSMIGYLSRKPTGREWKPYSERDVLEIDRIPVWFDSEGWVFDRYWGLTVISYPGGEVLLEKGGVNYNIVDFDFAPDDNTIVYAVSTDMKKPFIHKLVLWDLASGREKTLIEGLTIAAVAFDPRGRYIAVKANDRKRGLFSHYKIFVYDLNSEEFVCLTCDLDLNTLNTVNSDARGPSCLRGMYWDDNGHLYYGVHNAGRMVVMKSRPLGEAEAVLDPSSATVDDFSISRGGDTIAYVKMGPTSPPDIYIYRDDNEYRLTDHNAWFAESRSLAEPVRLQVQSPLGGSIDAWILLPPDAGECSGCLPWILYIHGGPKTSYGYAFIHEFQMLASQGFAVIYSNPRGSDGYSEEFADLRGRYGVDDYSELMKVVDEALSDFPQLDPQRGGVTGGSYGGYMTNVIVTKTRRFKAAVTQRSCSNWISFYGESDIGWYFAPELISAQEPWRDLEKYVDFSPLFSVENIETPLLIIHSTEDFRCPLSGAIQLFTALKLKGVETRLLVFPGENHNLSRSGTPKRRVARLRAIASWFKEHLGSQQRG | failed
14 | MPHDDHEHHHAADSAGAQGRLVWALILTGGFVVFEALAGWKANSLALLTDAVHNLSDVLALGLSWYAMRLTAQPAHAAKTFGYHRAGILAALANSAGLVGVALYILYDAYVRLLSPAPVQADILIGVGGAALLVNAFTAWLVHHGSHDDLNMRSAFLHLLGDVVSTLGAIAAGVAIRYTGLYWLDPAVSVLIALLILWNAKGLMAEVMDILLESTPRDVDMGSMVRDMMQVEGVHGVHHLHVWSISRQLRMLSAHIVTDDIRLSEGEGLQKRVTRLLAQRYGIAHTTLQLESESCQPDSLYCDISRPNHRYHGE | failed
15 | MPHSRPLSRLRASLILLLVSFIWGSAFVAQKTAFDAVEGATAPALGPLAFTGARFLLGALVVLPFALRENRQARSRGAPGAGLLAIFCGIGAVLFAASFTQQLGIIGTSVTNAGFLTALYVPLVPVVALVIFRQSVRKMIWPGAAGCLAGLWLLTGAATNGLSALTAGDLWVLVGALFWAFHVTVVGVMATRSGRPLTLAAAQFLTCGVLGWAGAFAFETPTLAGMAAIAPEIAYAGILSVGVAFTLQVVAQRHTHPAAAAIILSMEMVFASLAAVVVLGERLSGVQWLGAGLILASIIAVESAAALGDRRRGAAGALTP | failed
16 | MPHVRPSNAWRFLRTLWLGAWLAGWALLAQAQQLAPVPEFGARVVDQSGVLDAAQRQRLEAQLAALEQRKGAQVAVLIVPSTAPETIEQYATRAFEKWKIGRDKVDDGVLLLMASDDRALRIEVGYGLEGAIPDSAAGRIINEYIVPRLRAGDWPGAVQAGVTALERRIEGEELPPPAASGRDEGSRLAGIRGWLGENGIAALVVLLILPGPIAAALAGVGVAIYMQSISAGLAMALLVLGIKVIIKALPSGGGGGGGGGGGSGGGGFGGWRGGSRGGSGSGGFGGFRGGGGGRSGGGGASGRWLEHHHHHH | failed
17 | MPIFPKPKVTVILANLGTPDVPTASAVRAFLKQFLSDQRVIEIPKLLWKIILYSFVLPFRPKRVAHAYASVWGQDSPMREILFAQTDALKRQLISHYPQLDLNIVPAMTYGNPGVQHILKDLAASPQEHVILLPLFPQYSATSTAPLYDAFANWIPKQRHLPGLTIIKDYYRHPVFIQALVSSVQRFQQQHGKPQKLLMSFHGIPQPYADKGDPYADRCRETARLVAKQLGLTPDDWAISFQSRFGKQEWVKPYTDELLTTWAANGIKSVQILSPAFSADCLETLEELEIQNAELFLEAGGTSYQYIPALNTSVEHLELLRQLLQAHLDALNYSLAYSAH | failed
18 | MPINFHDANNKYTYAQRNAHISWREMIKSITSIQNKRIVDIGCGGGIYTKELALMGAKSVVGIDFSKEILQAAKENCSGFSNISFIHGDAHSTPYPNDTFDIVISRAVIHHLQDIPTFLREASRILKKNGVLIVQDRTIEDCTIPGSPEHIRGYFFSTFPKLIETESKRRPKTTTIQQELQKYFLHVFPTQTQWEVRKIHDSVEALLQDLSPRTGRSILYELTDYELSQLLQQVQTALQNVSPIIEKDRWTIWSAMKL | failed
19 | MPIPQATADAFCALTGDDQWIHIDPARAEAEGLAGGDTVLPGALLLSLAVGGLGKALGYPEGTRSWQRSYERVRFLRPAPVGSRLRLEARESRRRPAGTGREVVVANVSLYSDLVEAGPVMEGCFTSLLEVAVQPLEHHHHHH | failed

— a protein production outcome set (Wang et al. 2014)
